# Test results reported in the supplement of paper PMC11246515.
# ± gives the standard deviation of the averaged measurements.
# Assay: total protein half-life in vivo (active degradation + dilution); higher = more stable protein
# [1] = E. coli NCM3722 delta-clpP delta-lon delta-hslV, growth: N-lim chemostat, doubling time 6 h
# [2] = wild type E. coli NCM3722, growth: C-lim chemostat, doubling time 3 h
# [3] = wild type E. coli NCM3722, growth: N-lim chemostat, doubling time 6 h
# [4] = E. coli NCM3722 delta-clpP, growth: N-lim chemostat, doubling time 6 h
# [5] = E. coli NCM3722 delta-hslV, growth: N-lim chemostat, doubling time 6 h
# [6] = E. coli NCM3722 delta-lon, growth: N-lim chemostat, doubling time 6 h
# [7] = E. coli NCM3722 delta-smpB, growth: N-lim chemostat, doubling time 6 h
# [8] = wild type E. coli NCM3722, growth: C-lim chemostat, doubling time 6 h
# [9] = wild type E. coli NCM3722, growth: C-lim chemostat, doubling time 12 h
# [10] = wild type E. coli NCM3722, growth: N-lim chemostat, doubling time 12 h
# [11] = wild type E. coli NCM3722, growth: P-lim chemostat, doubling time 6 h
# [12] = wild type E. coli NCM3722, growth: P-lim chemostat, doubling time 12 h
Sequence,total protein half-life in vivo [1] [h],total protein half-life in vivo [2] [h],total protein half-life in vivo [3] [h],total protein half-life in vivo [4] [h],total protein half-life in vivo [5] [h],total protein half-life in vivo [6] [h],total protein half-life in vivo [7] [h],total protein half-life in vivo [8] [h],total protein half-life in vivo [9] [h],total protein half-life in vivo [10] [h],total protein half-life in vivo [11] [h],total protein half-life in vivo [12] [h]
MAIKLEIKNLYKIFGEHPQRAFKYIEQGLSKEQILEKTGLSLGVKDASLAIEEGEIFVIMGLSGSGKSTMVRLLNRLIEPTRGQVLIDGVDIAKISDAELREVRRKKIAMVFQSFALMPHMTVLDNTAFGMELAGINAEERREKALDALRQVGLENYAHSYPDELSGGMRQRVGLARALAINPDILLMDEAFSALDPLIRTEMQDELVKLQAKHQRTIVFISHDLDEAMRIGDRIAIMQNGEVVQVGTPDEILNNPANDYVRTFFRGVDISQVFSAKDIARRTPNGLIRKTPGFGPRSALKLLQDEDREYGYVIERGNKFVGAVSIDSLKTALTQQQGLDAALIDAPLAVDAQTPLSELLSHVGQAPCAVPVVDEDQQYVGIISKGMLLRALDREGVNNG,5.58 ± 1.6,1.16,5.28,,,,,,,,,
MKKLVLAALLASFTFGASAAEKINFGVSATYPPFESIGANNEIVGFDIDLAKALCKQMQAECTFTNHAFDSLIPSLKFRKYDAVISGMDITPERSKQVSFTTPYYENSAVVIAKKDTYKTFADLKGKRIGMENGTTHQKYIQDQHPEVKTVSYDSYQNAFIDLKNGRIDGVFGDTAVVNEWLKTNPQLGVATEKVTDPQYFGTGLGIAVRPDNKALLEKLNNALAAIKADGTYQKISDQWFPQ,4.29 ± 0.69,2.99 ± 0.12,5.47 ± 0.24,5.1 ± 0.92,5.91 ± 0.093,6.25 ± 0.23,5.73 ± 0.62,6.13 ± 0.83,9.32 ± 1.2,11.9 ± 0.32,5.3886 ± 0.0029,11 ± 1.2
MKIKTRFAPSPTGYLHVGGARTALYSWLFARNHGGEFVLRIEDTDLERSTPEAIEAIMDGMNWLSLEWDEGPYYQTKRFDRYNAVIDQMLEEGTAYKCYCSKERLEALREEQMAKGEKPRYDGRCRHSHEHHADDEPCVVRFANPQEGSVVFDDQIRGPIEFSNQELDDLIIRRTDGSPTYNFCVVVDDWDMEITHVIRGEDHINNTPRQINILKALKAPVPVYAHVSMINGDDGKKLSKRHGAVSVMQYRDDGYLPEALLNYLVRLGWSHGDQEIFTREEMIKYFTLNAVSKSASAFNTDKLLWLNHHYINALPPEYVATHLQWHIEQENIDTRNGPQLADLVKLLGERCKTLKEMAQSCRYFYEDFAEFDADAAKKHLRPVARQPLEVVRDKLAAITDWTAENVHHAIQATADELEVGMGKVGMPLRVAVTGAGQSPALDVTVHAIGKTRSIERINKALDFIAERENQQ,5.79 ± 0.64,3.22 ± 0.47,5.34 ± 0.34,5.2 ± 0.2,5.5 ± 0.56,5.42 ± 0.13,5.06 ± 0.56,6.28 ± 0.22,12.5 ± 0.98,9.3 ± 0.16,6.23 ± 0.25,12.2 ± 0.93
MFLIITRDTMFFTAMKNILSKGNVVHIQNEEEIDVMLHQNAFVIIDTLMNNVFHSNFLTQIERLKPVHVIIFSPFNIKRCLGKVPVTFVPRTITIIDFVALINGSYCSVPEAAVSLSRKQHQVLSCIANQMTTEDILEKLKISLKTFYCHKHNIMMILNLKRINELVRHQHIDYLV,3.86 ± 0.062,,2.94 ± 0.13,3.81,3.24 ± 0.28,3.74 ± 0.092,3.036 ± 0.0077,,,8.12,,4.78
MTVRILAVCGNGQGSSMIMKMKVDQFLTQSNIDHTVNSCAVGEYKSELSGADIIIASTHIAGEITVTGNKYVVGVRNMLSPADFGPKLLEVIKEHFPQDVK,> 8,2.24,,5.3,6.08 ± 2.4,,3.21,3.71,4.74 ± 0.78,,5.12 ± 1.8,9.81
MTITPQNLIALLPLLIVGLTVVVVMLSIAWRRNHFLNATLSVIGLNAALVSLWFVGQAGAMDVTPLMRVDGFAMLYTGLVLLASLATCTFAYPWLEGYNDNKDEFYLLVLIAALGGILLANANHLASLFLGIELISLPLFGLVGYAFRQKRSLEASIKYTILSAAASSFLLFGMALVYAQSGDLSFVALGKNLGDGMLNEPLLLAGFGLMIVGLGFKLSLVPFHLWTPDVYQGAPAPVSTFLATASKIAIFGVVMRLFLYAPVGDSEAIRVVLAIIAFASIIFGNLMALSQTNIKRLLGYSSISHLGYLLVALIALQTGEMSMEAVGVYLAGYLFSSLGAFGVVSLMSSPYRGPDADSLFSYRGLFWHRPILAAVMTVMMLSLAGIPMTLGFIGKFYVLAVGVQAHLWWLVGAVVVGSAIGLYYYLRVAVSLYLHAPEQPGRDAPSNWQYSAGGIVVLISALLVLVLGVWPQPLISIVRLAMPLM [P0AFF0],7.16,3.46,5.29,6.36 ± 0.41,6.09 ± 1.6,,6.08,,,,,11.8 ± 1.4
MRFSTQMMYQQNMRGITNSQAEWMKYGEQMSTGKRVVNPSDDPIAASQAVVLSQAQAQNSQYTLARTFATQKVSLEESVLSQVTTAIQNAQEKIVYASNGTLSDDDRASLATDIQGLRDQLLNLANTTDGNGRYIFAGYKTETAPFSEEKGKYVGGAESIKQQVDASRSMVIGHTGDKIFDSITSNAVAEPDGSASETNLFAMLDSAIAALKTPVADSEADKETAAAALDKTNRGLKNSLNNVLTVRAELGTQLNELESLDSLGSDRALGQTQQMSDLVDVDWNATISSYIMQQTALQASYKAFTDMQGLSLFQLSK,2.65 ± 0.11,0.265 ± 0.026,,> 8,,,,0.393 ± 0.063,0.399 ± 0.39,,,
MYRIGELAKMAEVTPDTIRYYEKQQMMEHEVRTEGGFRLYTESDLQRLKFIRHARQLGFSLESIRELLSIRIDPEHHTCQESKGIVQERLQEVEARIAELQSMQRSLQRLNDACCGTAHSSVYCSILEALEQGASGVKSGC [P0ACS5],4.46 ± 0.81,,0.748 ± 0.26,,,2.16,0.555 ± 0.043,0.866,1,,,
MSYTPMSDLGQQGLFDITRTLLQQPDLASLCEALSQLVKRSALADNAAIVLWQAQTQRASYYASREKDTPIKYEDETVLAHGPVRSILSRPDTLHCSYEEFCETWPQLDAGGLYPKFGHYCLMPLAAEGHIFGGCEFIRYDDRPWSEKEFNRLQTFTQIVSVVTEQIQSRVVNNVDYELLCRERDNFRILVAITNAVLSRLDMDELVSEVAKEIHYYFDIDDISIVLRSHRKNKLNIYSTHYLDKQHPAHEQSEVDEAGTLTERVFKSKEMLLINLHERDDLAPYERMLFDTWGNQIQTLCLLPLMSGDTMLGVLKLAQCEEKVFTTTNLNLLRQIAERVAIAVDNALAYQEIHRLKERLVDENLALTEQLNNVDSEFGEIIGRSEAMYSVLKQVEMVAQSDSTVLILGETGTGKELIARAIHNLSGRNNRRMVKMNCAAMPAGLLESDLFGHERGAFTGASAQRIGRFELADKSSLFLDEVGDMPLELQPKLLRVLQEQEFERLGSNKIIQTDVRLIAATNRDLKKMVADREFRSDLYYRLNVFPIHLPPLRERPEDIPLLAKAFTFKIARRLGRNIDSIPAETLRTLSNMEWPGNVRELENVIERAVLLTRGNVLQLSLPDIVLPEPETPPAATVVALEGEDEYQLIVRVLKETNGVVAGPKGAAQRLGLKRTTLLSRMKRLGIDKSALI,6.33 ± 0.39,2.4 ± 0.24,3.48 ± 0.2,4.33 ± 0.27,3.33 ± 0.097,5.42 ± 0.29,3.22 ± 0.57,5.33 ± 1.1,7.11 ± 0.98,8.1 ± 4.8,2.84,5.132 ± 0.02
MKIDLNADLGEGCASDAELLTLVSSANIACGFHAGDAQIMQACVREAIKNGVAIGAHPSFPDRENFGRSAMQLPPETVYAQTLYQIGALATIARAQGGVMRHVKPHGMLYNQAAKEAQLADAIARAVYACDPALILVGLAGSELIRAGKQYGLTTREEVFADRGYQADGSLVPRSQSGALIENEEQALAQTLEMVQHGRVKSITGEWATVAAQTVCLHGDGEHALAFARRLRSAFAEKGIVVAA,5 ± 0.5,2.4 ± 0.35,3.911 ± 0.035,,3.66,5.55 ± 2,3.12 ± 0.19,,7.69 ± 0.61,5.79 ± 0.9,4.55 ± 0.18,7.81 ± 1.7
MDAKQTRQGVLLALAAYFIWGIAPAYFKLIYYVPADEILTHRVIWSFFFMVVLMSICRQWSYLKTLIQTPQKIFMLAVSAVLIGGNWLLFIWAVNNHHMLEASLGYFINPLVNIVLGMIFLGERFRRMQWLAVILAICGVLVQLWTFGSLPIIALGLAFSFAFYGLVRKKIAVEAQTGMLIETMWLLPVAAIYLFAIADSSTSHMGQNPMSLNLLLIAAGIVTTVPLLCFTAAATRLRLSTLGFFQYIGPTLMFLLAVTFYGEKPGADKMVTFAFIWVALAIFVMDAIYTQRRTSK,,,,,,,,,,7.87,,
MSKHDTDTSDQHAAKRRWLNAHEEGYHKAMGNRQVQMIAIGGAIGTGLFLGAGARLQMAGPALALVYLICGLFSFFILRALGELVLHRPSSGSFVSYAREFLGEKAAYVAGWMYFINWAMTGIVDITAVALYMHYWGAFGGVPQWVFALAALTIVGTMNMIGVKWFAEMEFWFALIKVLAIVTFLVVGTVFLGSGQPLDGNTTGFHLITDNGGFFPHGLLPALVLIQGVVFAFASIEMVGTAAGECKDPQTMVPKAINSVIWRIGLFYVGSVVLLVMLLPWSAYQAGQSPFVTFFSKLGVPYIGSIMNIVVLTAALSSLNSGLYCTGRILRSMAMGGSAPSFMAKMSRQHVPYAGILATLVVYVVGVFLNYLVPSRVFEIVLNFASLGIIASWAFIIVCQMRLRKAIKEGKAADVSFKLPGAPFTSWLTLLFLLSVLVLMAFDYPNGTYTIAALPIIGILLVIGWFGVRKRVAEIHSTAPVVEEDEEKQEIVFKPETAS,,> 4,4.73,4.52,4.74 ± 0.064,4.87,,,11.4,10.3,,
MMSFQKIYSPTQLANAMKLVRQQNGWTQSELAKKIGIKQATISNFENNPDNTTLTTFFKILQSLELSMTLCDAKNASPESTEQQNLEW,,,4.64,,,,,,11.7,,,12 ± 0.84
MNTFSVSRLALALAFGVTLTACSSTPPDQRPSDQTAPGTSSRPILSAKEAQNFDAQHYFASLTPGAAAWNPSPITLPAQPDFVVGPAGTQGVTHTTIQAAVDAAIIKRTNKRQYIAVMPGEYQGTVYVPAAPGGITLYGTGEKPIDVKIGLSLDGGMSPADWRHDVNPRGKYMPGKPAWYMYDSCQSKRSDSIGVLCSAVFWSQNNGLQLQNLTIENTLGDSVDAGNHPAVALRTDGDQVQINNVNILGRQNTFFVTNSGVQNRLETNRQPRTLVTNSYIEGDVDIVSGRGAVVFDNTEFRVVNSRTQQEAYVFAPATLSNIYYGFLAVNSRFNAFGDGVAQLGRSLDVDANTNGQVVIRDSAINEGFNTAKPWADAVISNRPFAGNTGSVDDNDEIQRNLNDTNYNRMWEYNNRGVGSKVVAEAKK,5.8 ± 0.063,3.15 ± 0.05,6.28 ± 0.13,7.06 ± 1.3,6.54 ± 0.33,6.89 ± 0.2,5.993 ± 0.019,6.27 ± 0.39,11.6 ± 0.95,14.1 ± 0.59,6.3 ± 0.14,13.7 ± 0.19
MNQTLLSSFGTPFERVENALAALREGRGVMVLDDEDRENEGDMIFPAETMTVEQMALTIRHGSGIVCLCITEDRRKQLDLPMMVENNTSAYGTGFTVTIEAAEGVTTGVSAADRITTVRAAIADGAKPSDLNRPGHVFPLRAQAGGVLTRGGHTEATIDLMTLAGFKPAGVLCELTNDDGTMARAPECIEFANKHNMALVTIEDLVAYRQAHERKAS [P0A7J0],5.39 ± 0.59,1.2 ± 0.25,1.291 ± 0.0046,4.61 ± 0.68,1.27 ± 0.23,1.22 ± 0.28,1.02 ± 0.1,1.2 ± 0.21,1.35 ± 0.13,1.52 ± 0.086,0.987,1.82 ± 1.1
